This data set has as its system MS2 coat protein. Kind of data set: apparent KD of MS2 coat protein; designed switch direction (-1 OFF switch, 1 ON switch): 1; higher = weaker reporter binding. The essentials:
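Apparent KD, taken as the median over clusters for each design, was obtained by curve-fitting normalised cluster fluorescence. Designed RNA switches had been transcribed on Illumina chips by stalled E. coli RNA polymerase and titrated with SNAP-549-labelled MS2 coat protein, doubling from 0.7 or 1.5 nM to 3 µM.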

Where [1] appears, read: Eterna round: R95, input ligand: FMN 200 uM.
Where [2] appears, read: Eterna round: R95, input ligand: microRNA oligo, concentration not stated.
Where [3] appears, read: Eterna round: R95, input ligand: none.
The mark [4] stands for this setting: input ligand: microRNA oligo, concentration not stated.

On to “UGUCCAGCCUGAGCUGGACAAAAGCAUGUACAUGAGGAUCACCCAUGUUCAUGUACAAGCUUUUUGCUCGUCUUAAU [salish99_208a_r3_031] (puzzle: Sensor for hsa-mir-208a)”, for which the “apparent KD of MS2 coat protein” value reads like this: under setting [1], 497 nM; under setting [2], 14.1 nM; under setting [3], 445 nM.
With “UGUCCAGCCUGAGCUGGACAAAAGCAUGUACAUGAGGAUCACCCAUGUUCAUGUACAAGCUUUUUGCUCGUCUUACG [salish99_208a_r3_082] (puzzle: Sensor for hsa-mir-208a)”, the “apparent KD of MS2 coat protein” value was found to be 763 nM under setting [1], 15 nM under setting [2] and 690 nM under setting [3].
With “UGUCCAGCCUGAGCUGGACAAAAGCAUGUACAUGAGGAUCACCCAUGUUCAUGUACAAGCUUUUUGCUCGUCUUACU [salish99_208a_r3_081] (Eterna round: R96, puzzle: Sensor for hsa-mir-208a)”, the “apparent KD of MS2 coat protein” value (input ligand: FMN 200 uM) was found to be 534 nM, the “apparent KD of MS2 coat protein” value under setting [4] is 12.9 nM and the “apparent KD of MS2 coat protein” value (input ligand: none) came to 400 nM.
Regarding “UGUCCAGCCUGAGCUGGACAAAAGCAUGUACAUGAGGAUCACCCAUGUUCAUGUACAAGCUUUUUGCUCGUCUUACU [salish99_208a_r3_081] (puzzle: Sensor for hsa-mir-208a)”, the “apparent KD of MS2 coat protein” value under setting [1] stood at 360 nM, the “apparent KD of MS2 coat protein” value under setting [2] was 14.1 nM and the “apparent KD of MS2 coat protein” value under setting [3] worked out at 471 nM.
With “UGUCCAGCCUGAGCUGGACAAAAGCAUGUACAUGAGGAUCACCCAUGUUCAUGUACAAGCUUUUUGCUCGUCUUAUG [salish99_208a_r3_052] (puzzle: Sensor for hsa-mir-208a)”, the “apparent KD of MS2 coat protein” value by setting is: under setting [1], 517 nM; under setting [2], 16.4 nM; under setting [3], 655 nM.
The corresponding values for “UGUCCAGCCUGUGCUGGUCUUUUGCAUGUACAUGAGGAUCACCCAUGUCGUGUACAUGCUUUUUGCUCGUCUUUAAA [Photon Torp-04] (puzzle: Sensor for hsa-mir-208a)” are 181 nM, 25.4 nM and 317 nM.
Consider “UGUUAACAUGAGGAUCACCCAUGUCAAAUGAAGCGAGGAUAUGGAAAGUAAUAAGAUGAACUAGAAGGUGUAGUAG [Altered State 1-20 - Jieux - Same State 1] (puzzle: Same State 1)”, for which the “apparent KD of MS2 coat protein” value under setting [1] was 37.6 nM, the “apparent KD of MS2 coat protein” value under setting [2] turned out to be 59.4 nM and the “apparent KD of MS2 coat protein” value under setting [3] amounted to 62 nM.
The like results for “UGUUAACAUGAGGAUCACCCAUGUCAAAUGAAUCGAGGAUAUGGGAAGUAAGAAGAGAAACUAGAAGGCGAAGUUG [Altered State 1-3 - Jieux - Same State 1] (puzzle: Same State 1)” were, in that order, 97.2 nM, 72.9 nM and 226 nM.
The corresponding values for “UGUUAACAUGAGGAUCACCCAUGUCAAAUGAAUCGAGGAUAUGGGAAGUAAUAAGAUAAACCAGAAGGCGAAGUUG [Altered State 1-16 - Jieux - Same State 1] (puzzle: Same State 1)” are 54.7 nM, 302 nM and 229 nM.
As to “UGUUAGUAGACAGGAUAUUGAAUGUUAAGUAUUAACAUGAGGAUCACCCAUGUAUUUGAUUGGUACAAGAAGGGUCAUGUUUGU [JR_SSNG2_Sub014] (Eterna round: R96, puzzle: Same State NG 2)”, the “apparent KD of MS2 coat protein” value under setting [4] amounted to 290 nM.
Turning to “UGUUGUAUUACAGGAUAUCUAGGAUUUUUAUUUAGAGAAGGGUAUUCACAUGAGGAUCACCCAUGUAUAUACGAGGAAGUUGUG [JMF's solution 31] (Eterna round: R96, puzzle: Same State NG 1)”, the “apparent KD of MS2 coat protein” value under setting [4] was 30.6 nM.
Same read-out and setting: next, “UGUUGUAUUACAGGAUAUCUAGUAUUUUUACUUAGAGAAGGGUAUUCACAUGAGGAUCACCCAUGUAUAUACGAGGAAGUUGUG [JMF's solution 50] (Eterna round: R96, puzzle: Same State NG 1)”: 22.9 nM.
Consider “UGUUGUAUUACAGGAUAUCUAGUAUUUUUAGUUAGAGAAGGGUAUUCACAUGAGGAUCACCCAUGUAUAUACGAGGAAGUUGUG [JMF's solution 49] (Eterna round: R96, puzzle: Same State NG 1)”, for which the “apparent KD of MS2 coat protein” value (input ligand: FMN 200 uM) was determined as 43.7 nM, the “apparent KD of MS2 coat protein” value under setting [4] worked out at 36.9 nM and the “apparent KD of MS2 coat protein” value (input ligand: none) was 45.7 nM.
Turning to “UGUUGUAUUACAGGAUAUCUAGUAUUUUUAUGUAGAGAAGGGUAUUCACAUGAGGAUCACCCAUGUAUAUACGAGGAAGUUGUG [JMF's solution 52] (Eterna round: R96, puzzle: Same State NG 1)”, under setting [4], the “apparent KD of MS2 coat protein” value turned out to be 28.9 nM.
Turning to “UGUUGUAUUACAGGAUAUCUAUGAUUUGUAUUUAGAGAAGGGUAUUCACAUGAGGAUCACCCAUGUAUAUACGAGGAAGUUGUG [JMF's solution 62] (Eterna round: R96, puzzle: Same State NG 1)”, the “apparent KD of MS2 coat protein” value (input ligand: FMN 200 uM) worked out at 67.5 nM, the “apparent KD of MS2 coat protein” value under setting [4] came out at 48.5 nM and the “apparent KD of MS2 coat protein” value (input ligand: none) worked out at 62.3 nM.
On to “UGUUGUAUUACAGGAUAUCUAUUAGUUUAAUUUAGAGAAGGGUAUUCACAUGAGGAUCACCCAUGUAUAUACGAGGAAGUUGUG [JMF's solution 93] (Eterna round: R96, puzzle: Same State NG 1)”, for which the “apparent KD of MS2 coat protein” value under setting [4] amounted to 39.5 nM.
For the sequence “UGUUGUAUUACAGGAUAUCUAUUAGUUUUAGUUAGAGAAGGGUAUUCACAUGAGGAUCACCCAUGUAUAUACGAGGAAGUUGUG [JMF's solution 99] (Eterna round: R96, puzzle: Same State NG 1)”, under setting [4], the “apparent KD of MS2 coat protein” value came to 34.6 nM.
For the sequence “UGUUGUAUUACAGGAUAUCUAUUAGUUUUAUAUAGAGAAGGGUAUUCACAUGAGGAUCACCCAUGUAUAUACGAGGAAGUUGUG [JMF's solution 100] (Eterna round: R96, puzzle: Same State NG 1)”, the “apparent KD of MS2 coat protein” value under setting [4] amounted to 36.8 nM.
On the same count and under the same terms, the result for “UGUUGUAUUACAGGAUAUCUAUUAGUUUUUUUUAGAGAAGGGUAUUCACAUGAGGAUCACCCAUGUAUAUACGAGGAAGUUGUG [JMF's solution 96] (Eterna round: R96, puzzle: Same State NG 1)” reads 36.8 nM.
With “UGUUGUUAAUUAGGAUAUGGGCACAUGAGGAUCACCCAUGUAUUUUCGAUGCUAUGUGGAGACGUCUAGAAGGAAUGGCUAACA [SameState NG2 #89] (Eterna round: R96, puzzle: Same State NG 2)”, the “apparent KD of MS2 coat protein” value turned out to be 205 nM (input ligand: FMN 200 uM), 212 nM under setting [4] and 219 nM (input ligand: none).
“UGUUGUUAAUUAGGAUAUGGUCACAUGAGGAUCACCCAUGUAAUGUCGAUGCUAUGUGGAUCUGAUCAGAAGGAAUGGCUAACA [SameState NG2 #96] (Eterna round: R96, puzzle: Same State NG 2)”: the “apparent KD of MS2 coat protein” value reads like this: (input ligand: FMN 200 uM) 108 nM; under setting [4], 105 nM; (input ligand: none) 137 nM.
“UGUUGUUAAUUAGGAUAUGGUCACAUGAGGAUCACCCAUGUAAUGUCGAUGCUAUGUGGAUUUGAUCAGAAGGAAUGGUUAACA [SameState NG2 #98] (Eterna round: R96, puzzle: Same State NG 2)”: the “apparent KD of MS2 coat protein” value by setting is: (input ligand: FMN 200 uM) 49.2 nM; under setting [4], 62.3 nM; (input ligand: none) 90.4 nM.
Take “UUAAAACAUGAGGAUCACCCAUGUAAUAAUAUGGGAGGAUAUCAGAUUUAAUUUAAUUUAUGAGAAGGCCUAAAUG [Mat - Same State 1 - Mod of Eli - D60] (puzzle: Same State 1)”: the “apparent KD of MS2 coat protein” value under setting [1] turned out to be 65.4 nM, the “apparent KD of MS2 coat protein” value under setting [2] is 407 nM and the “apparent KD of MS2 coat protein” value under setting [3] was found to be 1150 nM.
The like results for “UUAAAACAUGAGGAUCACCCAUGUCAACAAAGUCGAGGAUAUGGGCAAAUAAAAUAAGAACCAGAAGGCGAAUAAG [salish99_SS1_r3_005] (puzzle: Same State 1)” were, in that order, 36.9 nM, 221 nM and 314 nM.
The like results for “UUAAAACAUGAGGAUCACCCAUGUCAUCUAAGUCGAGGAUAUGGGAAUUAAUUAAUUAAACCAGAAGGCGAAUAUU [Mat - Same State 1 - D90] (puzzle: Same State 1)” were, in that order, 38.6 nM, 439 nM and 543 nM.
Consider “UUAAAACAUGAGGAUCACCCAUGUCAUCUAAGUCGAGGAUAUGGGCAUAUAAUAUAAGAACCAGAAGGCGAAUAUU [Mat - Same State 1 - Mod of UCT - D26] (puzzle: Same State 1)”, for which the “apparent KD of MS2 coat protein” value is, setting by setting: under setting [1], 113 nM; under setting [2], 37.7 nM; under setting [3], 58.4 nM.
Turning to “UUAACAUGAGGAUCACCCAUGUAUAGGGAGUUAGCAAUUGGACAGGAUAUUGAAGAUGUAGAUAGCAAGAAGGGUCGGUAGUCU [JR_SSNG3_Sub002] (Eterna round: R96, puzzle: Same State NG 3)”, the “apparent KD of MS2 coat protein” value by setting is: (input ligand: FMN 200 uM) 36.8 nM; under setting [4], 32.9 nM; (input ligand: none) 46.7 nM.
For “UUAACAUGAGGAUCACCCAUGUAUAGGGAGUUUGCAAUUUGACAGGAUAUUGAAGAUGUAGAUAGCAAGAAGGGUCGGUAGUCU [JR_SSNG3_Sub004] (Eterna round: R96, puzzle: Same State NG 3)”, the “apparent KD of MS2 coat protein” value worked out at 46.1 nM (input ligand: FMN 200 uM), 32.4 nM under setting [4] and 43.9 nM (input ligand: none).
As to “UUAAGCAACGGGCAGGAUAUGUAUUAAAAUACAUGAGGAUCACCCAUGUGCAGGUGUAACACCUGACAGAAGGGCCAAUCGCUGC [Soteed - 7] (puzzle: Same State 2)”, the “apparent KD of MS2 coat protein” value runs as follows: under setting [1], 63.8 nM; under setting [2], 531 nM; under setting [3], 900 nM.

For the origin of these results see the supplement of paper PMC9170038.
